Patent publication US20020177126A1 (published 2002)
Substitutions are numbered along the chain they refer to. Where “and” joins values, the source holds several entries; their conditions need not be identical. Equal values may be shown once.

B1: 1X-493L1FR (Fab) (Fab, V domains shown)
VH: QVTLRESGPALVKPTQTLTLTCTFSGFSLSTSGMSVGWIRQPPGKALEWLADIWWDDKKDYNPSLKSRLTISKDTSKNQVVLKVTNMDPADTATYYCARSMITNWYFDVWGAGTTVTVSS
VL: DIQMTQSPSTLSASVGDRVTITCSASSSVGYMHWYQQKPGKAPKLLIYDTSKLASGVPSRFSGSGSGTEFTLTISSLQPDDFATYYCFQGSGYPFTFGGGTKLEIK
B2: 6H8 (Fab) (Fab, V domains shown)
VH: B1 VH with S32A, S100D, W105F
VL: B1 VL with S51F, A54T
B3: AFFF (monoclonal antibody) (antibody, V domains shown)
VH: B1 VH with S32A, W105F
VL: B1 VL with S51F, G90F
B4: DG (Fab) (Fab, V domains shown)
VH: B1 VH with S32A, S100D, W105F
VL: B1 VL with S51F
B5: H3-3F4 (Fab) (Fab, V domains shown)
VH: B1 VH with S32A, S100D, T103F
VL: B1 VL with S51F
notes: also called 113-3F4
B6: L1-7E5 (Fab) (Fab, V domains shown)
VH: B1 VH with S32A, S100D, W105F
VL: B1 VL with S28R, S51F
B7: M3H9 (Fab) (Fab, V domains shown)
VH: B1 VH with S32A, S100D, T103F
VL: B1 VL with S51Y, L53Q, A54T
B8: Y10H6 (Fab) (Fab, V domains shown)
VH: B1 VH with S32A, S100D, T103F
VL: B1 VL with S51R, K52Y, A54S
B9: P12f2 (Fab) (Fab, V domains shown)
VH: B1 VH with S32P, D60H, S67D, S100D, T103F, W105F
VL: B1 VL with A25L, S28R, S51F, K52Y, A54S, L103V
notes: also called Pf12; P1212
B10: P12f4 (Fab) (Fab, V domains shown)
VH: B1 VH with S32P, D57G, D60H, S67D, S100D, T103F, W105F, A112Q
VL: B1 VL with A25L, S28R, S51R, K52G, A54P, L103V
B11: P11d4 (Fab) (Fab, V domains shown)
VH: B1 VH with S32P, D57G, D60H, S67D, S100D, T103F, A112Q
VL: B1 VL with A25P, S28R, S51M, K52R, L103V
B12: A12a6 (Fab) (Fab, V domains shown)
VH: B1 VH with S32A, D57G, S67D, S100D, T103F, W105F, A112Q
VL: B1 VL with S28R, S51F, A54S, L103V
B13: A13c4 (Fab) (Fab, V domains shown)
VH: B1 VH with S32A, D57G, D60S, S67D, S100D, T103F, W105F, A112Q
VL: B1 VL with A25L, S28R, S51M, K52Y, L53Q, A54S, L103V
B14: A13a11 (Fab) (Fab, V domains shown)
VH: B1 VH with S32A, D60H, S67D, S100D, T103F
VL: B1 VL with A25P, S28R, S51Y, K52R, L53H, A54S
B15: A12a6 (monoclonal antibody) (antibody, V domains shown)
VH: B1 VH with S32A, D57G, S67D, S100D, T103F, W105F, A112Q
VL: B1 VL with S28R, S51F, A54S, L103V
B16: A13c4 (monoclonal antibody) (antibody, V domains shown)
VH: B1 VH with S32A, D57G, D60S, S67D, S100D, T103F, W105F, A112Q
VL: B1 VL with A25L, S28R, S51M, K52Y, L53Q, A54S, L103V
B17: P11d4 (monoclonal antibody) (antibody, V domains shown)
VH: B1 VH with S32P, D57G, D60H, S67D, S100D, T103F, A112Q
VL: B1 VL with A25P, S28R, S51M, K52R, L103V
B18: P12f2 (monoclonal antibody) (antibody, V domains shown)
VH: B1 VH with S32P, D60H, S67D, S100D, T103F, W105F
VL: B1 VL with A25L, S28R, S51F, K52Y, A54S, L103V
notes: also called Pf12; P1212
B19: P12f4 (monoclonal antibody) (antibody, V domains shown)
VH: B1 VH with S32P, D57G, D60H, S67D, S100D, T103F, W105F, A112Q
VL: B1 VL with A25L, S28R, S51R, K52G, A54P, L103V
B20: A1e9 (monoclonal antibody) (antibody, V domains shown)
VH: B1 VH with S32A, D57G, D60H, S67D, S100D, T103F, A112Q
VL: B1 VL with A25L, S28R, S51F, A54S, L103V
B21: A8c7 (monoclonal antibody) (antibody, V domains shown)
VH: B1 VH with S32A, D60S, S67D, S100D, T103F, A112Q
VL: B1 VL with A25P, S28R, S51R, K52Y, L53Q, A54S

Each binder was assayed against F protein (RSV F glycoprotein immobilised on the BIAcore sensor chip) (respiratory syncytial virus (RSV), UniProt P03420 26-524) (assay: BIAcore, immobilised F protein).
F protein (RSV F glycoprotein immobilised on the BIAcore sensor chip), sequence (P03420 26-524): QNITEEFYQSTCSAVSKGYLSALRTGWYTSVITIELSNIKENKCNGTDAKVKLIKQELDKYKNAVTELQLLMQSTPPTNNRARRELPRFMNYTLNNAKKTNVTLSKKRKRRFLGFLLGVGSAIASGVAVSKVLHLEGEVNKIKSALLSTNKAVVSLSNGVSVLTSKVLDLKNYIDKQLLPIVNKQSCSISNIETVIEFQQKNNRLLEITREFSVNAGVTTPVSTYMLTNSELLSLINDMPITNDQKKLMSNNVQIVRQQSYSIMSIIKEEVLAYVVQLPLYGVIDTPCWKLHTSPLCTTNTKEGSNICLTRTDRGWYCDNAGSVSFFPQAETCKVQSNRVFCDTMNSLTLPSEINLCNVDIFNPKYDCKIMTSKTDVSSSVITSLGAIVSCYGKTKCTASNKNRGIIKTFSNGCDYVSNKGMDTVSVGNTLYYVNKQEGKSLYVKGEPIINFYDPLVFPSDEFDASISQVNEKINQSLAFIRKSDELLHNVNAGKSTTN
With B1 the koff was 0.00065 s⁻¹ and the kon was 185000 M⁻¹ s⁻¹. For B2, the koff was 0.000178 s⁻¹ and 0.000473 s⁻¹ and the kon was 314000 M⁻¹ s⁻¹ and 444000 M⁻¹ s⁻¹. B3 was tested, and the koff was 0.000274 s⁻¹ and 0.000266 s⁻¹ and 0.000206 s⁻¹ and the kon was 108000 M⁻¹ s⁻¹ and 96000 M⁻¹ s⁻¹ and 124000 M⁻¹ s⁻¹. For B4, the koff was 0.000167 s⁻¹ and 0.000444 s⁻¹. For B5, the koff was 0.000445 s⁻¹ and 0.000402 s⁻¹. For B6, the koff was 0.000192 s⁻¹ and 0.000331 s⁻¹ and 0.000229 s⁻¹. B7 gave a koff of 0.000338 s⁻¹ and a kon of 605000 M⁻¹ s⁻¹. Work on B8 yielded a koff of 0.000462 s⁻¹ and a kon of 757000 M⁻¹ s⁻¹. B9 was tested, and the koff was 0.000282 s⁻¹ and the kon was 663000 M⁻¹ s⁻¹. For B10, the koff was 0.000299 s⁻¹ and the kon was 527000 M⁻¹ s⁻¹. With B11 the koff was 0.000717 s⁻¹ and the kon was 570000 M⁻¹ s⁻¹ and 572000 M⁻¹ s⁻¹. B12 gave a koff of 0.00023 s⁻¹ and a kon of 743000 M⁻¹ s⁻¹. For B13, the koff was 0.00028 s⁻¹ and the kon was 781000 M⁻¹ s⁻¹ and 735000 M⁻¹ s⁻¹. For B14, the koff was 0.00025 s⁻¹ and the kon was 735000 M⁻¹ s⁻¹.

Each binder was assayed against T1, F protein of wild type RSV A/Long (respiratory syncytial virus, strain …, UniProt P12568 26-574) (assay: cell-based or functional assay).
T1 sequence (P12568 26-574): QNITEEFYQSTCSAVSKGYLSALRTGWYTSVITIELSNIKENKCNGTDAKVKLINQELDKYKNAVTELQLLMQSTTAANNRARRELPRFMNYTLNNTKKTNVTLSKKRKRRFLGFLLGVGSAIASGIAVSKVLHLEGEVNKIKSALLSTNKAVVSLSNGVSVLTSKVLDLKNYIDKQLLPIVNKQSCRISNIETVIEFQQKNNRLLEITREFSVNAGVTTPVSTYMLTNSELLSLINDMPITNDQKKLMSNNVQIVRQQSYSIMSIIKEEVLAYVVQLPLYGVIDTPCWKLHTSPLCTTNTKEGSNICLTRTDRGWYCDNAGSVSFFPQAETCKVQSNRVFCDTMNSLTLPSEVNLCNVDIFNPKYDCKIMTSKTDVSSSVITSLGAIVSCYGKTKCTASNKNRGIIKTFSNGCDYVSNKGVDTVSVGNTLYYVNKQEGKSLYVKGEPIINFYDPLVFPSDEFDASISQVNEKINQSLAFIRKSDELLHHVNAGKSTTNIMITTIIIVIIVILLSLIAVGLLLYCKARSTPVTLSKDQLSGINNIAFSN
B9 was tested, and the “EC50, RSV (Long) microneutralization” value was 0.65 nM. In the case of B10, the “EC50, RSV (Long) microneutralization” value is reported as 0.7 nM. For B11, the “EC50, RSV (Long) microneutralization” value was greater than 20 nM. In the case of B12, the “EC50, RSV (Long) microneutralization” value is reported as 0.62 nM. For B13, the “EC50, RSV (Long) microneutralization” value was 0.52 nM.

Molecular target: T1, F protein of wild type RSV A/Long
Test: cell-based or functional assay
Remark: another data set of the same source
With B15 the “Fold Difference (Control IC50)” value was 15 fold, the “Fold Difference (Curve IC50)” value was 13 fold and the “Mean IC50 (Control), RSV microneutralization” value (shortened to “Mean IC50 (Control)”) was 0.0354 mg/L. The “Mean IC50 (Curve), RSV microneutralization” value (“Mean IC50 (Curve)” for short) was 0.0357 mg/L. B16 was tested, and the “Fold Difference (Control IC50)” value was 14 fold, the “Fold Difference (Curve IC50)” value was 12 fold and the “Mean IC50 (Control)” value was 0.0375 mg/L. The “Mean IC50 (Curve)” value was 0.0376 mg/L. B17 was tested, and the “Fold Difference (Control IC50)” value was 19 fold, the “Fold Difference (Curve IC50)” value was 21 fold and the “Mean IC50 (Control)” value was 0.0289 mg/L. The “Mean IC50 (Curve)” value was 0.0217 mg/L. In the case of B18, the “Fold Difference (Control IC50)” value is reported as 24 fold, the “Fold Difference (Curve IC50)” value is reported as 20 fold and the “Mean IC50 (Control)” value is reported as 0.0223 mg/L. The “Mean IC50 (Curve)” value was 0.0231 mg/L. For B19, the “Fold Difference (Control IC50)” value was 23 fold, the “Fold Difference (Curve IC50)” value was 19 fold and the “Mean IC50 (Control)” value was 0.0235 mg/L. The “Mean IC50 (Curve)” value was 0.0242 mg/L. With B9 the “Fold Difference (Control IC50)” value was 16 fold, the “Fold Difference (Curve IC50)” value was 11 fold and the “Mean IC50 (Control)” value was 0.0326 mg/L. The “Mean IC50 (Curve)” value was 0.0407 mg/L. B10 was tested, and the “Fold Difference (Control IC50)” value was 15 fold, the “Fold Difference (Curve IC50)” value was 10 fold and the “Mean IC50 (Control)” value was 0.0351 mg/L. For the same binder, the “Mean IC50 (Curve)” value was 0.0464 mg/L. In the case of B11, the “Mean IC50 (Control)” value is reported as greater than 1 mg/L and the “Mean IC50 (Curve)” value is reported as greater than 1 mg/L. For B12, the “Fold Difference (Control IC50)” value was 17 fold, the “Fold Difference (Curve IC50)” value was 16 fold and the “Mean IC50 (Control)” value was 0.031 mg/L. For the same binder, the “Mean IC50 (Curve)” value was 0.0287 mg/L. In the case of B13, the “Fold Difference (Control IC50)” value is reported as 21 fold, the “Fold Difference (Curve IC50)” value is reported as 17 fold and the “Mean IC50 (Control)” value is reported as 0.0258 mg/L. The “Mean IC50 (Curve)” value was 0.0264 mg/L.

The binders below were run against Bac-F (UniProt P03420 26-524) (assay: BIAcore, Mab vs Bac-F, 1:1).
Bac-F, sequence (P03420 26-524): as the sequence (P03420 26-524) above
Work on B20 yielded a Kd of 0.33 nM, a koff of 0.000143 s⁻¹ and a kon of 433000 M⁻¹ s⁻¹. The “number in parentheses after KD (fold vs SYNAGIS)” value (from here on “number … (fold vs SYNAGIS)”) was 12 fold. With B21 the Kd was 0.21 nM, the koff was 8.75e-05 s⁻¹ and the kon was 417000 M⁻¹ s⁻¹. The “number … (fold vs SYNAGIS)” value was 19 fold. Binder B15 has a Kd of 0.04 nM, a koff of 1.65e-05 s⁻¹ and a kon of 460000 M⁻¹ s⁻¹. The “number … (fold vs SYNAGIS)” value was 98 fold. B16 gave a Kd of 0.13 nM, a koff of 3.96e-05 s⁻¹ and a kon of 300000 M⁻¹ s⁻¹. The “number … (fold vs SYNAGIS)” value was 30 fold. In the case of B17, the Kd is reported as 0.62 nM, the koff is reported as 0.000289 s⁻¹ and the kon is reported as 466000 M⁻¹ s⁻¹. The “number … (fold vs SYNAGIS)” value was 6 fold. With B18 the Kd was 0.31 nM, the koff was 0.000128 s⁻¹ and the kon was 407000 M⁻¹ s⁻¹. The “number … (fold vs SYNAGIS)” value was 13 fold. Work on B19 yielded a Kd of 0.11 nM, a koff of 5.55e-05 s⁻¹ and a kon of 495000 M⁻¹ s⁻¹. The “number … (fold vs SYNAGIS)” value was 35 fold.
